Results as given in patent US20100159560.

Experiments:
[1] = biological target: T1, protransglutaminase of Streptoverticillium mobaraense IFO13819 (pro-MTG) (UniProt P81453)
T1 sequence: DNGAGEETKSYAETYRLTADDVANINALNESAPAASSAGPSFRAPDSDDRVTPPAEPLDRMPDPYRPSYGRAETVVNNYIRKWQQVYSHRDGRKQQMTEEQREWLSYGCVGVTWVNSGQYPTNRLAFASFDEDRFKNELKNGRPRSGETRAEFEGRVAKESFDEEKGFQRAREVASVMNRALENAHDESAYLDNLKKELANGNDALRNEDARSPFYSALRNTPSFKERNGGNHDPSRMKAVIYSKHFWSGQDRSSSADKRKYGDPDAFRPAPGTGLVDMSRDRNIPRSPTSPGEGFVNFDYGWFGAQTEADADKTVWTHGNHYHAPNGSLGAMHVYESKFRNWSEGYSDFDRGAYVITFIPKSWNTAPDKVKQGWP

[2] = biological target: T2, Streptomyces subtilisin inhibitor (SSI) derived from actinomycetes (UniProt P01006)
T2 sequence: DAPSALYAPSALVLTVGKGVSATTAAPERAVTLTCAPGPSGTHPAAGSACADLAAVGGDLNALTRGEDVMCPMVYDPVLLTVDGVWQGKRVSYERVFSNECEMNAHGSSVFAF

| Substance | conversion of pro-MTG to mature MTG (SDS-PAGE time course; TG activity by the hydroxamate method), substrate:enzyme = 200:1 [1] | relative activity (Gly-Pro-Ser-Phe-Arg-Ala-Pro-Asp-Ser cleavage activity, absence of compounds = 100%) [2] | cleavage points (HPLC separation and sequencing of peptide fragments) (insulin B) | amount of protease needed to convert pro-MTG to active MTG (TG activity by the hydroxamate method, MTG protein by reverse phase chromatography) [1] | cleavage points (HPLC separation and sequencing of peptide fragments) [1] | amount of protease needed to convert pro-MTG to active MTG (TG activity by the hydroxamate method) [1] |
| --- | --- | --- | --- | --- | --- | --- |
| neutral metalloprotease SGMP II from Streptomyces griseus | pro-MTGs were converted to the mature forms, and the produced MTGs were not reduced even after a long-term reaction |  |  |  |  |  |
| neutral metalloprotease SVP70 from Streptoverticillium mobaraense IFO13819 | pro-MTGs were converted to the mature forms, and the produced MTGs were not reduced even after a long-term reaction | underwent strong inhibitory action | cleaved before (at N-terminal side of) especially Phe, often Leu, sometimes Tyr, Trp, Ile, Val | SVP could convert pro-MTG to active MTG with an amount as small as 1/500 of the substrate | cleaved before (at N-terminal side of) especially Phe, often Leu, sometimes Tyr, Trp, Ile, Val |  |
| serine protease SAM-P45 (Streptomyces albogriseolus) |  |  |  | when SAM-P45 was added at an amount of 1/10 of the substrate, the conversion into the active MTG was observed, but a decrease in the amount and the activity of MTG-protein was observed |  | generated only insufficient transglutaminase activity even at an amount of 1/50 of the substrate, and that the complete conversion to the active form was not observed |
